# Measurements as given in US20150159134A1, “METHOD FOR PRODUCING RETINAL PIGMENT EPITHELIAL CELLS” (PFIZER LIMITED, priority 2013, published 2015).
# “Also recorded” adds a separate entry of the source.
# B1: BMP4/7: recombinant BMP4/7 heterodimer protein, BMP pathway activator (protein, UniProt P12644 293-408; P18075 293-431, looked up)
# Bone morphogenetic protein 4: SPKHHSQRARKKNKNCRRHSLYVDFSDVGWNDWIVAPPGYQAFYCHGDCPFPLADHLNSTNHAIVQTLVNSVNSSIPKACCVPTELSAISMLYLDEYDKVVLKNYQEMVVEGCGCR
# Bone morphogenetic protein 7: STGSKQRSQNRSKTPKNQEALRMANVAENSSSDQRQACKKHELYVSFRDLGWQDWIIAPEGYAAYYCEGECAFPLNSYMNATNHAIVQTLVHFINPETVPKPCCAPTQLNAISVLYFDDSSNVILKKYRNMVVRACGCH
# modifications: heterodimer
# B2: BMP4: BMP pathway activator (protein, UniProt P12644 293-408, looked up)
# Bone morphogenetic protein 4: B1 Bone morphogenetic protein 4
# B3: BMP7: BMP pathway activator (protein, UniProt P18075 293-431, looked up)
# Bone morphogenetic protein 7: B1 Bone morphogenetic protein 7
# B4: activin A: activin pathway activator (protein, UniProt P08476 311-426, looked up)
# Inhibin beta A chain: GLECDGKVNICCKKQFFVSFKDIGWNDWIIAPSGYHANYCEGECPSHIAGTSGSSLSFHSTVINHYRMRGHSPFANLKSCCVPTKLRPMSMLYYDDGQNIIKKDIQNMIVEECGCS
# What was measured:
# Format in all cases: cell-based, human
# Shef-1 hESCs [1] = experiment: Alternative BMP pathway activators, MITF expression (immunostaining, qPCR); settings: Day 13; BMPs Day 6-9: 50-200 ng/ml BMP4/7 heterodimer, 200 ng/ml BMP4, 300 ng/ml BMP7, 100 ng/ml BMP2/6
# Experimental: Shef-1 hESCs were seeded onto Matrigel coated 96-well plates at a density of 125000 cells/cm^2. […] On Day 9, BMPs were withdrawn and cells maintained in DMEM KSRXF alone for 4 days. On Day 13, MITF expression was tested by Immunostaining and qPCR analysis.
# Shef-1 hESCs [2] = experiment: Induction of RPE markers MITF and PMEL17 by BMP pathway activation (qPCR, immunocytochemistry)
# Experimental: This example illustrates the effect of a BMP pathway activator on RPE marker expression. Shef-1 hESCs were seeded onto Matrigel coated 96-well plates at a density of 125000 cells/cm^2. […] Cells for the uninduced control were left untreated. On Day 6, 100 ng/ml BMP4/7 or 100 ng/ml activin A+10 mM Nicotinamide or nothing was added to the media for 3 days. On Day 9, BMP4/7 or activin A and Nicotinamide were withdrawn and cells were treated with DMEM KSRXF alone for 4 days. Samples were prepared for RNA extraction and qPCR analysis.
# Immunocytochemistry was carried out in 96-well or 384-well format. Media was aspirated and 50 μL 4% paraformaldehyde (PFA) was added to each well and incubated for 35 minutes at room temperature. PFA was aspirated and cells washed 3×100 uL PBS(+/+). Cells were incubated for 1 hour at room temperature in the dark in blocking buffer (PBS(+/+)/5% normal donkey serum (NDS)/0.3% TritonX100). 1° antibodies were made up in PBS(+/+)/1% normal donkey serum (NDS)/0.3% TritonX100. 60 μL 1° antibody solution was added to each well and incubated for 1 hour at room temperature in the dark. Solution was aspirated and cells washed 3×100 uL PBS(+/+). 2° antibodies were made up in PBS(+/+)/1% normal donkey serum (NDS)/0.3% TritonX100. 60 uL 2° antibody solution was added to each well and incubated for 1 hour at room temperature in the dark. […]
# Shef-1 hESCs [3] = experiment: First replating step with supplemented media (immunocytochemistry, qPCR)
# Text: Cells replated at Day 12 were maintained from Day 9 to Day 12 in DMEM KSRXF alone before replating. […] Mature RPE cells sample obtained by spontaneous differentiation as disclosed in Example 10 (a) was used as a control to compare the similarity between the populations obtained upon the first replating step of directed differentiation and mature RPE cells. 19 days post replating, cells were fixed for immunocytochemistry and samples were collected for qPCR. […] QPCR analysis with a panel of markers also indicated Day 9 to be the optimum time for replating (FIGS. 4C, 4D and 4E). Similar results were obtained when cells were cultured on different matrices e.g Matrigel, Cellstart or Fibronectin before and after replate.
# [4] = system: induced pluripotent cells (iPSCs); experiment: Directed differentiation of iPSCs (immunostaining); settings: following replating at Day 9 in the presence of Activin A
# Experimental: The directed differentiation protocol was performed on induced pluripotent cells (iPSCs). IPSCs were generated from erythroblasts obtained from healthy volunteers and reprogrammed using the CytoTune-iPS Reprogramming kit (Life Technologies, A13780-01/02). IPSCs were seeded in E8 medium at a density of 240000 cells/cm^2 and differentiated to Day 9-19 of the directed differentiation protocol with early replating. Induced cells refer to cells treated with LDN193189/SB-431542 from Day 2 to Day 6 followed by BMP4/7 from Day 6 to Day 9. Uninduced cells are maintained without exposure to both LDN193189/SB-431542 and BMP4/7. Immunostaining was performed for markers of interest. […] Following the second replete step at Day 9-19 and culturing for a period of 45 days, iPSCs derived RPE expressed a panel of RPE markers to similar levels seen in RPE derived by directed differentiation from ES cells as obtained by the protocol of example 8 (see FIGS. 15E, 15F and 15G).
# WA26 hESCs = experiment: Duration of exposure to activin A (CRALBP immunostaining); settings: 100 ng/ml activin A
# Experimental: On Day 9, cells were replated into 96 well CellBind plates coated with Matrigel or Cellstart at a density of 500000 cells/cm^2. The cells were maintained in either DMEM KSRXF alone or DMEM KSRXF supplemented with 100 ng/ml activin A for different lengths of time e.g 3 days, 5 days, 10 days or 18 days. At D9-18, cells were fixed for immunostaining and stained for CRALBP, a marker of RPE cells.
molecule,measurement,setting,value
B1,MITF expression (immunostaining and qPCR),Shef-1 hESCs [1],induced expression of MITF to a similar level
same,expression of RPE markers MITF and PMEL17 (immunocytochemistry),Shef-1 hESCs [2]; LDN193189/SB-431542 followed by BMP4/7,confirmed expression of RPE markers
same,expression of RPE genes MITF and PMEL17 (qPCR),"Shef-1 hESCs [2]; added Day 6 for 3 days after 4 days LDN193189/SB-431542, 100 ng/ml BMP4/7 or 100 ng/ml activin A+10 mM Nicotinamide, vs uninduced or LDN193189/SB-431542 only controls",induced expression of RPE genes
same,survival of replated cells,Shef-1 hESCs [3]; replated into DMEM KSRXF with 100 ng/ml BMP4/7,did not survive
B2,MITF expression (immunostaining and qPCR),Shef-1 hESCs [1],induced expression of MITF to a similar level
B3,MITF expression (immunostaining and qPCR),Shef-1 hESCs [1],induced expression of MITF to a similar level
B4,RPE marker CRALBP expression (immunostaining),[4],upregulated
same,induction of RPE cells differentiation / RPE markers by short exposure,WA26 hESCs,sufficient for inducing RPE cells differentiation; also recorded: sufficient to induce expression of RPE markers
same,"mature RPE marker expression (CRALBP, MERTK) by immunocytochemistry","Shef-1 hESCs [3]; replating at D9, 100 ng/ml activin A, 19 days post replating",optimum and yielded high levels of RPE marker expression
